# Experimental data reported in patent US7657380.
# Substitutions are numbered along the chain they refer to.
# T1: human CD30 (commercial, conjugated to digoxigenin) (human, UniProt P28908 19-379, limits assumed, conjugated to digoxigenin (DIG))
# T1 sequence (looked up): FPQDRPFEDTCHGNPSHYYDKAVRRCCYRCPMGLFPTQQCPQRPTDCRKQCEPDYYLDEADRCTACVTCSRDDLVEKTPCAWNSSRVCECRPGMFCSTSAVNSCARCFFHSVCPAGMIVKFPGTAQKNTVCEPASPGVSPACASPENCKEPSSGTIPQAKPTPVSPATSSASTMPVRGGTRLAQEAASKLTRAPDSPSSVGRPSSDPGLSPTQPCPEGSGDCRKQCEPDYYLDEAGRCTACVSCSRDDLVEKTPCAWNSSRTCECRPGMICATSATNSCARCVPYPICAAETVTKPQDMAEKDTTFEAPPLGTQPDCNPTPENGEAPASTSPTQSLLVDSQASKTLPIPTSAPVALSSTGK
# B1: AC10 H3.21/L3 (antibody, IgG1, name in Kabat numbering, V domains shown)
# VH: QIQLVQSGPEVKKPGASVKVSCKASGYTFTDYYITWVRQAPGQRLEWMGWIYPGSGNTKYNEKFQGRFVFSVDTSASTAYLQISSLKAEDTAVYFCANYGNYWFAYWGQGTLVTVSS
# VL: DIVLTQSPDSLAVSLGERATINCKASQSVDFDGDSYMNWYQQKPGQPPKVLIYAASNLESGIPARFSGSGSGTDFTLTINSLEAEDAATYYCQQSNEDPWTFGGGTKVEIK
# B2: AC10 H3.23/L3 (antibody, IgG1, name in Kabat numbering, V domains shown)
# VH: B1 VH with R44G, W50R
# VL: B1 VL
# B3: AC10 H3.43/L3 (antibody, IgG1, name in Kabat numbering, V domains shown)
# VH: B1 VH with R44G, V72M
# VL: B1 VL
# B4: AC10 H3.57/L3 (antibody, IgG1, name in Kabat numbering, V domains shown)
# VH: B1 VH with R44G, A105D
# VL: B1 VL
# B5: AC10 H3.45/L3 (antibody, IgG1, name in Kabat numbering, V domains shown)
# VH: B1 VH with R44G, T91M
# VL: B1 VL
# B6: AC10 H3.50/L3 (antibody, IgG1, name in Kabat numbering, V domains shown)
# VH: B1 VH with R44G, A97V
# VL: B1 VL
# B7: AC10 H3.54/L3 (antibody, IgG1, name in Kabat numbering, V domains shown)
# VH: B1 VH with R44G, N98R
# VL: B1 VL
# B8: AC10 H3.40/L3 (antibody, IgG1, name in Kabat numbering, V domains shown)
# VH: B1 VH with R44G, E62Q
# VL: B1 VL
# B9: AC10 H3.34/L3 (antibody, IgG1, name in Kabat numbering, V domains shown)
# VH: B1 VH with R44G, N61A
# VL: B1 VL
# B10: AC10 H3.63/L3 (antibody, IgG1, name in Kabat numbering, V domains shown)
# VH: B1 VH with R44G, Y106F
# VL: B1 VL
# B11: AC10 H3.64/L3 (antibody, IgG1, name in Kabat numbering, V domains shown)
# VH: B1 VH with R44G, Q109R
# VL: B1 VL
# B12: AC10 H3.24/L3 (antibody, IgG1, name in Kabat numbering, V domains shown)
# VH: B1 VH with R44G, Y52N
# VL: B1 VL
# B13: AC10 H3.44/L3 (antibody, IgG1, name in Kabat numbering, V domains shown)
# VH: B1 VH with R44G, V72R
# VL: B1 VL
# B14: AC10 H3.41/L3 (antibody, IgG1, name in Kabat numbering, V domains shown)
# VH: B1 VH with R44G, Q65T
# VL: B1 VL
# B15: AC10 H3.52/L3 (antibody, IgG1, name in Kabat numbering, V domains shown)
# VH: B1 VH with R44G, N98H
# VL: B1 VL
# B16: AC10 H3.46/L3 (antibody, IgG1, name in Kabat numbering, V domains shown)
# VH: B1 VH with R44G, V93M
# VL: B1 VL
# B17: AC10 H3.62/L3 (antibody, IgG1, name in Kabat numbering, V domains shown)
# VH: B1 VH with R44G, Y106L
# VL: B1 VL
# B18: AC10 H3.48/L3 (antibody, IgG1, name in Kabat numbering, V domains shown)
# VH: B1 VH with R44G, F95Y
# VL: B1 VL
# B19: AC10 H3.42/L3 (antibody, IgG1, name in Kabat numbering, V domains shown)
# VH: B1 VH with R44G, V72L
# VL: B1 VL
# B20: AC10 H3.29/L3 (antibody, IgG1, name in Kabat numbering, V domains shown)
# VH: B1 VH with R44G, S55D
# VL: B1 VL
# B21: AC10 H3.36/L3 (antibody, IgG1, name in Kabat numbering, V domains shown)
# VH: B1 VH with R44G, N61S
# VL: B1 VL
# B22: AC10 H3.39/L3 (antibody, IgG1, name in Kabat numbering, V domains shown)
# VH: B1 VH with R44G, N61D
# VL: B1 VL
# B23: AC10 H3.53/L3 (antibody, IgG1, name in Kabat numbering, V domains shown)
# VH: B1 VH with R44G, N98K
# VL: B1 VL
# B24: AC10 H3.59/L3 (antibody, IgG1, name in Kabat numbering, V domains shown)
# VH: B1 VH with R44G, Y106H
# VL: B1 VL
# B25: AC10 H3.27/L3 (antibody, IgG1, name in Kabat numbering, V domains shown)
# VH: B1 VH with R44G, P53A
# VL: B1 VL
# B26: AC10 H3.58/L3 (antibody, IgG1, name in Kabat numbering, V domains shown)
# VH: B1 VH with R44G, A105Q
# VL: B1 VL
# B27: AC10 H3.55/L3 (antibody, IgG1, name in Kabat numbering, V domains shown)
# VH: B1 VH with R44G, N98T
# VL: B1 VL
# B28: AC10 H3.32/L3 (antibody, IgG1, name in Kabat numbering, V domains shown)
# VH: B1 VH with R44G, K59I
# VL: B1 VL
# B29: AC10 H3.61/L3 (antibody, IgG1, name in Kabat numbering, V domains shown)
# VH: B1 VH with R44G, Y106V
# VL: B1 VL
# B30: AC10 H3.37/L3 (antibody, IgG1, name in Kabat numbering, V domains shown)
# VH: B1 VH with R44G, N61T
# VL: B1 VL
# B31: AC10 H3.28/L3 (antibody, IgG1, name in Kabat numbering, V domains shown)
# VH: B1 VH with R44G, P53V
# VL: B1 VL
# B32: AC10 H3.38/L3 (antibody, IgG1, name in Kabat numbering, V domains shown)
# VH: B1 VH with R44G, N61V
# VL: B1 VL
# B33: AC10 H3.49/L3 (antibody, IgG1, name in Kabat numbering, V domains shown)
# VH: B1 VH with R44G, A97T
# VL: B1 VL
# B34: AC10 H3.33/L3 (antibody, IgG1, name in Kabat numbering, V domains shown)
# VH: B1 VH with R44G, K59N
# VL: B1 VL
# B35: AC10 H3.60/L3 (antibody, IgG1, name in Kabat numbering, V domains shown)
# VH: B1 VH with R44G, Y106S
# VL: B1 VL
# B36: AC10 H3.22/L3 (antibody, IgG1, name in Kabat numbering, V domains shown)
# VH: B1 VH with R44G, W50I
# VL: B1 VL
# B37: AC10 H3.30/L3 (antibody, IgG1, name in Kabat numbering, V domains shown)
# VH: B1 VH with R44G, S55N
# VL: B1 VL
# B38: AC10 H3/L3.8 (antibody, IgG1, name in Kabat numbering, V domains shown)
# VH: B1 VH with R44G
# VL: B1 VL with S28D
# B39: AC10 H3/L3.6 (antibody, IgG1, name in Kabat numbering, V domains shown)
# VH: B1 VH with R44G
# VL: B1 VL with L4M
# B40: AC10 H3/L3.3 (antibody, IgG1, name in Kabat numbering, V domains shown)
# VH: B1 VH with R44G
# VL: B1 VL with D1N
# B41: AC10 H3/L3.4 (antibody, IgG1, name in Kabat numbering, V domains shown)
# VH: B1 VH with R44G
# VL: B1 VL with D1S
# B42: AC10 H3/L3.5 (antibody, IgG1, name in Kabat numbering, V domains shown)
# VH: B1 VH with R44G
# VL: B1 VL with V3Q
# B43: AC10 H3/L3.1 (antibody, IgG1, name in Kabat numbering, V domains shown)
# VH: B1 VH with R44G
# VL: B1 VL with D1A
# B44: AC10 H3/L3.2 (antibody, IgG1, name in Kabat numbering, V domains shown)
# VH: B1 VH with R44G
# VL: B1 VL with D1E
# Target: T1, human CD30 (commercial, conjugated to …)
# Test: AlphaScreen competition
row,Binder,Fold IC50 vs H3/L3 [fold]
1,B1,2.6
2,B2,0.16
3,B3,0.88
4,B4,0.53
5,B5,1.14
6,B6,1.4
7,B7,0
8,B8,1.83
9,B9,1.3
10,B10,1.24
11,B11,1.28
12,B12,0.03
13,B13,1.76
14,B14,1.38
15,B15,1.24
16,B16,1.39
17,B17,1.22
18,B18,1.6
19,B19,0.66

row,Binder,Fold IC50 vs H3/L3 [fold]
1,B20,1.81
2,B21,1.24
3,B22,1
4,B23,0.02
5,B24,1.05
6,B25,2
7,B26,0.16
8,B27,0.91
9,B28,1.09
10,B29,1.21
11,B30,1.01
12,B31,1.34
13,B32,1.14
14,B33,0.38
15,B34,0.5
16,B35,0.82
17,B36,0.01
18,B37,1.45

# Target: T1, human CD30 (commercial, conjugated to …)
# Test: AlphaScreen competition
# Remark: another data set of the same source
row,Binder,Fold IC50 vs H3/L3 [fold]
1,B38,0.94
2,B39,1.64
3,B40,1.66
4,B41,1.04
5,B42,1.32
6,B43,1.3
7,B44,1.24
